This test concerns the target T1, hTAFII80δ (human, UniProt P49848 1-677).
T1 construct: Endogenous protein immunoprecipitated from HeLa extracts; also called hTAFII80 delta; δ isoform of hTAFII80
Kind of test: co-immunoprecipitation of endogenous hTAFII80δ complexes from HeLa cells, immunoblot.

This is an account of results in EP1160320A1 (INSTITUT NATIONAL DE LA SANTE ET DE LA RECHERCHE MEDICALE …, dated 2001).

T1 sequence (P49848 other isoform, or with tags, fused parts or gaps mutant limits assumed): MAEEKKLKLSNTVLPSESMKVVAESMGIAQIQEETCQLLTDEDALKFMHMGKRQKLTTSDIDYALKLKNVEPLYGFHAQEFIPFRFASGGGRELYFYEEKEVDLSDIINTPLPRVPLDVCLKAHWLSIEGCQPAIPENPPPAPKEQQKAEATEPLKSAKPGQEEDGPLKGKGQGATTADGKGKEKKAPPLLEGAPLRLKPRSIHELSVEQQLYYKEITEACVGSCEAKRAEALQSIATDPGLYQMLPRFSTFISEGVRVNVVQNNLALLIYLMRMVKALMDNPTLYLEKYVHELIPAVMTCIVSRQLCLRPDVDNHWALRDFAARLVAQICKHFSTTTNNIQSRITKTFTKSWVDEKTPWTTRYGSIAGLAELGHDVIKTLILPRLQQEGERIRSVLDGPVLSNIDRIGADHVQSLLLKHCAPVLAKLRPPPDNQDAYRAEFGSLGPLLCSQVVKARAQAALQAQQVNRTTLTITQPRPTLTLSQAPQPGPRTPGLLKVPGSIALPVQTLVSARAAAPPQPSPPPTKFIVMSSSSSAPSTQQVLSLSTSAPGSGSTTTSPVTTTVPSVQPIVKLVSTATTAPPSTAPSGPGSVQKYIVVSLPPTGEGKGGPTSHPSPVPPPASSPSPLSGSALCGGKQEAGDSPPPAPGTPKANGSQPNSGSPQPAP

B1: hTAFII31 (other, human, UniProt Q16594 1-264, looked up)
chain: MESGKTASPKSMPKDAQMMAQILKDMGITEYEPRVINQMLEFAFRYVTTILDDAKIYSSHAKKATVDADDVRLAIQCRADQSFTSPPPRDFLLDIARQRNQTPLPLIKPYSGPRLPPDRYCLTAPNYRLKSLQKKASTSAGRITVPRLSVGSVTSRPSTPTLGTPTPQTMSVSTKVGTPMSLTGQRFTVQMPTSQSPAVKASIPATSAVQNVLINPSLIGSKNILITTNMMSSQNTANESSNALKRKREDDDDDDDDDDDYDNL
notes: Baculovirus-produced in SF9 extracts for the pull-down; endogenous in HeLa cells for the co-immunoprecipitation; No tag is stated; also called recombinant hTAFII31; histone H3-like hTAFII31
Consider B1, for which the binding result is “no binding”.
